Experimental data as given in the supplement of paper PMC10201428.
± gives the standard deviation of the averaged measurements.

How the values were obtained:
[1] = tested on: VchCAST RNA-guided transposition machinery (E. coli BL21(DE3) host, lacZ target); assay: relative integration efficiency (T-RL orientation) vs wild-type transposon end (log2 (normalized fold change)); transposon end mutated: right end (5 bp flank + 75 bp right end); higher = more efficient transposition
In short: (§1)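 Pools of 1549 left-end or 1849 right-end barcoded transposon variants were cloned into a pUC57 mini-transposon donor and co-transformed into E. coli BL21(DE3) with a T7-driven effector plasmid carrying a CRISPR array, tniQ-cas8-cas7-cas6 and tnsA-tnsB-tnsC. Plating used 0.1 mM IPTG at 37°C for 18 h, and input plasmids and genomic integration junctions were PCR-amplified for Illumina sequencing, with two biological output replicates and four reference barcodes. Relative integration efficiency is the log-transformed fold change of output over input barcode abundance, normalised to the reference barcodes.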

[2] = tested on: VchCAST RNA-guided transposition machinery (E. coli BL21(DE3) host, lacZ target); assay: relative integration efficiency (T-LR orientation) vs wild-type transposon end (log2 (normalized fold change)); transposon end mutated: right end (5 bp flank + 75 bp right end); higher = more efficient transposition
In short: as §1

Sequence: ACATTTGTTGATACAACCAAAAAATGATAATTACACCCATAAATTGATAATGATGACACCGAATTTAACTATAACGCTCTGATCATAGTCAGACCAACATTGCTACGACCCGTATTCGCACCGACAC
- relative integration efficiency (log2) [1]: -1.42 ± 0.27
- relative integration efficiency (log2) [2]: 2.11 ± 0.27

Sequence: ACATTTGTTGATACAACCAAAAAATGATAATTACACCCATAAATTGATAATTGTGACACCGAATTTAACTATAACGCTCTGATCATAGTCAGACCAACATTGCTACGACCCGTATTCGCACCGACAC
- relative integration efficiency (log2) [1]: -1.12 ± 0.18
- relative integration efficiency (log2) [2]: 2.44 ± 0.069

Sequence: ACATTTGTTGATACAACCAATAAAAGATAATTACACCCATAAATTGATAATTGTGACACCGAATTTAACTATAACGCTCTGATCATAGTCAGACCAACATTGCTACGACCCGTATTCGCACCGACAC
- relative integration efficiency (log2) [1]: -2 ± 0.21
- relative integration efficiency (log2) [2]: 1.26 ± 0.029

Sequence: ACATTTGTTGATACAACCAATAAAAGATTAATACCCCCATTAATTGATAATTGTGACACCGAATTTAACTATAACGCTCTGATCATAGTCAGACCAACATTGCTACGACCCGTATTCGCACCGACAC
- relative integration efficiency (log2) [1]: -5.12 ± 0.085
- relative integration efficiency (log2) [2]: -2.97 ± 0.16

Sequence: ACATTTGTTGATACAACCAATAAAAGATTATTACCCCCATTAATTGATAATGATGACACCGAATTTAACTATAACGCTCTGATCATAGTCAGACCAACATTGCTACGACCCGTATTCGCACCGACAC
- relative integration efficiency (log2) [1]: -4.62 ± 0.48
- relative integration efficiency (log2) [2]: -1.84 ± 0.29

Sequence: ACATTTGTTGATACAACCAATAAATGATAAATACACCCATAAATTGATAATGATGACACCGAATTTAACTATAACGCTCTGATCATAGTCAGACCAACATTGCTACGACCCGTATTCGCACCGACAC
- relative integration efficiency (log2) [1]: -1.58 ± 0.26
- relative integration efficiency (log2) [2]: 1.75 ± 0.069

Sequence: ACATTTGTTGATACAACCAATAAATGATAATTACACCCATAAATTGATAATAATGACACCGAATTTAACTATAACGCTCTGATCATAGTCAGACCAACATTGCTACGACCCGTATTCGCACCGACAC
- relative integration efficiency (log2) [1]: -1.44 ± 0.28
- relative integration efficiency (log2) [2]: 2.08 ± 0.21

Sequence: ACATTTGTTGATACAACCAATAAATGATAATTACACCCATAAATTGATAATGATGACACCGAATTTAACTATAACGCTCTGATCATAGTCAGACCAACATTGCTACGACCCGTATTCGCACCGACAC
- relative integration efficiency (log2) [1]: -1.56 ± 0.22
- relative integration efficiency (log2) [2]: 1.92 ± 0.035

Sequence: ACATTTGTTGATACAACCAATAAATGATAATTACACCCATAAATTGATAATTATCACACCCATAAATTGATATTGCCTCTGATCATAGTCAGACCAACATTGCTACGACCCGTATTCGCACCGACAC
- relative integration efficiency (log2) [1]: -0.395 ± 0.089
- relative integration efficiency (log2) [2]: -0.407 ± 0.67

Sequence: ACATTTGTTGATACAACCAATAAATGATAATTACACCCATAAATTGATAATTGTGACACCGAATTTAACTATAACGCTCTGATCATAGTCAGACCAACATTGCTACGACCCGTATTCGCACCGACAC
- relative integration efficiency (log2) [1]: -1.29 ± 0.29
- relative integration efficiency (log2) [2]: 2.09 ± 0.064

Sequence: ACATTTGTTGATACAACCAATAAATGATAATTACACCCATTAATTGATAATAATGACACCGAATTTAACTATAACGCTCTGATCATAGTCAGACCAACATTGCTACGACCCGTATTCGCACCGACAC
- relative integration efficiency (log2) [1]: -1.48 ± 0.29
- relative integration efficiency (log2) [2]: 1.91 ± 0.054

Sequence: ACATTTGTTGATACAACCAATAAATGATAATTACCCCCATAAATTGATAATTGTGACACCGAATTTAACTATAACGCTCTGATCATAGTCAGACCAACATTGCTACGACCCGTATTCGCACCGACAC
- relative integration efficiency (log2) [1]: -2.18 ± 0.42
- relative integration efficiency (log2) [2]: 1.59 ± 0.12

Sequence: ACATTTGTTGATACAACCAATAAATGATTATTACACCCATAAATTGATAATAATGACACCGAATTTAACTATAACGCTCTGATCATAGTCAGACCAACATTGCTACGACCCGTATTCGCACCGACAC
- relative integration efficiency (log2) [1]: 0.0749 ± 0.43
- relative integration efficiency (log2) [2]: 3.45 ± 0.19

Sequence: ACATTTGTTGATACAACCAATTTATGATAATTACACCCATAAATTGATAATTATCACACCCATAAATTGATATTGCCTCTGATCATAGTCAGACCAACATTGCTACGACCCGTATTCGCACCGACAC
- relative integration efficiency (log2) [1]: -0.308 ± 0.066
- relative integration efficiency (log2) [2]: -0.66 ± 0.3

Sequence: ACATTTGTTGATACAACCAATTTTTGATAATTACACCCAATTTATGATAATTATCACACCCAATTTATGATATTGCCTCTGATCATAGTCAGACCAACATTGCTACGACCCGTATTCGCACCGACAC
- relative integration efficiency (log2) [1]: -1.89 ± 0.22
- relative integration efficiency (log2) [2]: -1.18 ± 0.21

Sequence: ACATTTGTTGATACAACCAGAAAATGATAATTACACCCAGAAATTGATAATTATCACACCCAGAAATTGATATTGCCTCTGATCATAGTCAGACCAACATTGCTACGACCCGTATTCGCACCGACAC
- relative integration efficiency (log2) [1]: -5.0799 ± 0.0039
- relative integration efficiency (log2) [2]: -3.58 ± 1.1

Sequence: ACATTTGTTGATACAACCAGCAAATGATAATTACACCCATAAATTGATAATTATCACACCCATAAATTGATATTGCCTCTGATCATAGTCAGACCAACATTGCTACGACCCGTATTCGCACCGACAC
- relative integration efficiency (log2) [1]: -2.72 ± 0.21
- relative integration efficiency (log2) [2]: -3.07 ± 0.51

Sequence: ACATTTGTTGATACAACCAGCCCATGATAATTACACCCATAAATTGATAATTATCACACCCATAAATTGATATTGCCTCTGATCATAGTCAGACCAACATTGCTACGACCCGTATTCGCACCGACAC
- relative integration efficiency (log2) [1]: -4.196 ± 0.023
- relative integration efficiency (log2) [2]: -3.69 ± 0.75

Sequence: ACATTTGTTGATACAACCAGCCCCGTCGCCGGCACAAACGCCCGGTCGCCGGCGACACAAACGCCCGGTCGCGGTAAGAGGATCATAGTCAGACCAACATTGCTACGACCCGTATTCGCACCGACAC
- relative integration efficiency (log2) [1]: -7.56 ± 1.3
- relative integration efficiency (log2) [2]: -6.28 ± 0.75

Sequence: ACATTTGTTGATACAACCAGCCCCTGATAATTACACCCAGCCCGTGATAATTATCACACCCAGCCCGTGATATTGCCTCTGATCATAGTCAGACCAACATTGCTACGACCCGTATTCGCACCGACAC
- relative integration efficiency (log2) [1]: -6.71 ± 0.47
- relative integration efficiency (log2) [2]: -4.67 ± 2

Sequence: ACATTTGTTGATACAACCATAAAAACATAATTACACCCATAAATTGATAATTATCACACCCATAAATTGATATTGCCTCTGATCATAGTCAGACCAACATTGCTACGACCCGTATTCGCACCGACAC
- relative integration efficiency (log2) [1]: -1.45 ± 0.33
- relative integration efficiency (log2) [2]: -1.06 ± 0.19

Sequence: ACATTTGTTGATACAACCATAAAAACTAAATTACACCCATAAATTGATAATTATCACACCCATAAATTGATATTGCCTCTGATCATAGTCAGACCAACATTGCTACGACCCGTATTCGCACCGACAC
- relative integration efficiency (log2) [1]: -1.23 ± 0.062
- relative integration efficiency (log2) [2]: -1.55 ± 0.34

Sequence: ACATTTGTTGATACAACCATAAAAAGATAATTACACCCATAAATAGATAATTATCACACCCATAAATAGATATTGCCTCTGATCATAGTCAGACCAACATTGCTACGACCCGTATTCGCACCGACAC
- relative integration efficiency (log2) [1]: -1.3 ± 0.18
- relative integration efficiency (log2) [2]: -0.0292 ± 0.3

Sequence: ACATTTGTTGATACAACCATAAAAAGATAATTACACCCATAAATTGATAATAATGACACCGAATTTAACTATAACGCTCTGATCATAGTCAGACCAACATTGCTACGACCCGTATTCGCACCGACAC
- relative integration efficiency (log2) [1]: -1 ± 0.49
- relative integration efficiency (log2) [2]: 2.514 ± 0.018

Sequence: ACATTTGTTGATACAACCATAAAAAGATAATTACACCCATAAATTGATAATGATGACACCGAATTTAACTATAACGCTCTGATCATAGTCAGACCAACATTGCTACGACCCGTATTCGCACCGACAC
- relative integration efficiency (log2) [1]: -1.33 ± 0.2
- relative integration efficiency (log2) [2]: 2.23 ± 0.057

Sequence: ACATTTGTTGATACAACCATAAAAAGATAATTACACCCATAAATTGATAATTGTGACACCGAATTTAACTATAACGCTCTGATCATAGTCAGACCAACATTGCTACGACCCGTATTCGCACCGACAC
- relative integration efficiency (log2) [1]: -1.15 ± 0.29
- relative integration efficiency (log2) [2]: 2.38 ± 0.082

Sequence: ACATTTGTTGATACAACCATAAAACGATAATTACACCCATAAATGGATAATTATCACACCCAATTTAACTATAACGCTCTGATCATAGTCAGACCAACATTGCTACGACCCGTATTCGCACCGACAC
- relative integration efficiency (log2) [1]: -1.18 ± 0.21
- relative integration efficiency (log2) [2]: 1.52 ± 0.035

Sequence: ACATTTGTTGATACAACCATAAAACGATAATTACACCCATAAATGGATCATTATCACACCCAATTTAACTATAACGCTCTGATCATAGTCAGACCAACATTGCTACGACCCGTATTCGCACCGACAC
- relative integration efficiency (log2) [1]: -1.78 ± 0.29
- relative integration efficiency (log2) [2]: 1.06 ± 0.24

Sequence: ACATTTGTTGATACAACCATAAAACGATAATTACACCCATAAATTCATAATTATCACACCCAATTTAACTATAACGCTCTGATCATAGTCAGACCAACATTGCTACGACCCGTATTCGCACCGACAC
- relative integration efficiency (log2) [1]: -2.21 ± 0.42
- relative integration efficiency (log2) [2]: 1.3 ± 0.2

Sequence: ACATTTGTTGATACAACCATAAAACGATAATTACACCCATAAATTCATCATTATCACACCCAATTTAACTATAACGCTCTGATCATAGTCAGACCAACATTGCTACGACCCGTATTCGCACCGACAC
- relative integration efficiency (log2) [1]: -2.21 ± 0.32
- relative integration efficiency (log2) [2]: 1.29 ± 0.12

Sequence: ACATTTGTTGATACAACCATAAAACGATAATTACACCCATAAATTGATCATTATCACACCCAATTTAACTATAACGCTCTGATCATAGTCAGACCAACATTGCTACGACCCGTATTCGCACCGACAC
- relative integration efficiency (log2) [1]: -1.68 ± 0.16
- relative integration efficiency (log2) [2]: 1.86 ± 0.099

Sequence: ACATTTGTTGATACAACCATAAAAGGATAATTACACCCATAAATGGATAATTATCACACCCATAAATGGATATTGCCTCTGATCATAGTCAGACCAACATTGCTACGACCCGTATTCGCACCGACAC
- relative integration efficiency (log2) [1]: -1.1 ± 0.065
- relative integration efficiency (log2) [2]: -0.23 ± 0.13

Sequence: ACATTTGTTGATACAACCATAAAAGGATAATTACACCCATAAATTGATAATTATCACACCCCATTTAACTATAACGCTCTGATCATAGTCAGACCAACATTGCTACGACCCGTATTCGCACCGACAC
- relative integration efficiency (log2) [1]: -1.31 ± 0.2
- relative integration efficiency (log2) [2]: 2.32 ± 0.013

Sequence: ACATTTGTTGATACAACCATAAAAGGATAATTACACCCATAAATTGATAATTATCCCACCCAATTTAACTATAACGCTCTGATCATAGTCAGACCAACATTGCTACGACCCGTATTCGCACCGACAC
- relative integration efficiency (log2) [1]: -0.818 ± 0.21
- relative integration efficiency (log2) [2]: 1.98 ± 0.22

Sequence: ACATTTGTTGATACAACCATAAAAGGATAATTACACCCATAAATTGATAATTATCCCACCCCATTTAACTATAACGCTCTGATCATAGTCAGACCAACATTGCTACGACCCGTATTCGCACCGACAC
- relative integration efficiency (log2) [1]: -0.775 ± 0.14
- relative integration efficiency (log2) [2]: 2.28 ± 0.097
